According to US20100077492A1:

Target: human PC4 protein (full length wild type) (human) (UniProt P53999)
Assay: cell-based or functional assay

PC4 binding to a 10-nt DNA bubble substrate in an electrophoretic mobility shift assay after pre-incubation of the DNA with XPG: 44 nM
Substance: purified human XPG (without HMK tag) (from UniProt P28715 1-1186) (enzyme)
